# Experiments:
# [1] = In vitro human skin penetration test by microneedles (parathyroid hormone); type: in vitro ADME; conditions: microneedles height 500 μm compared with 300 μm; 40 μg hPTH coated; attachment six hours
# Excerpt: (§1) Two types of microneedles made of a polylactic acid that differ in the length of the needle part (h: 300 μm and 500 μm) were used. The shape of either of these two types of microneedles was square pyramid, and the density of the microneedle was 400 needles/cm^2. Also, the area of either one of microneedle devices was 1 cm^2.
# A coating liquid prepared according to the below-described technique (30% human parathyroid hormone hPTH (1-34) (the product of Sichuan Unibiochem Co., Ltd.), 7.5% pullulan, and 0.1% Tween 20) was coated on a microneedle device similarly to Example 1, and after piercing excised human skin with this microneedle device by finger pressing (2 kg/patch), the device and the skin were placed on an acrylic cell for sampling over time. As a receptor layer, physiological saline containing 0.01% benzalkonium chloride was used, and 1 mL of a receptor liquid collected per sampling time was measured by a gamma counter to calculate a PTH concentration. It is to be noted that a period of attachment of the microneedle device was set at six hours. The results of the sampling are as shown in the graph in FIG. 5.
# (2) After coating microneedles with the coating solution prepared in (1), radiation of each pharmaceutical preparation was counted using a NaI counter to estimate the content of PTH coated on the needle part. […]
# [2] = Hairless rat in vivo absorption test by microneedles (parathyroid hormone)
# Excerpt: as §1
# Firstly, the abdomen of a hairless rat was pierced with a microneedle device in which tips of the needles were coated with a similar coating liquid to Example 2 (30% human parathyroid hormone hPTH (1-34) (the product of Sichuan Unibiochem Co., Ltd.), 7.5% pullulan, and 0.1% Tween 20) by a similar technique to Example 1 by hand pushing, and the microneedle device was covered with a foam tape (the product of 3M Company) and left attached for six hours. Then, blood was collected over time (amount of blood collected 200 μL/times) to measure the serum hPTH concentration with a Rat PTH IRMA kit (the product of Immutopics International). Also, in a subcutaneous administration group, 0.2 mg/mL hPTH in physiological saline was prepared, 40 μL of which was subcutaneously administered to the back of a hairless rat, and the PTH concentration was similarly measured.
# [3] = Study on drying time of a sucrose additive to PTH, stability of content (Example 8); type: physicochemical; conditions: 60° C.
# Method: (§2) A medicinal unit sample for screening of a stabilizing agent was fully dried and enclosed in an aluminum packing material, sandwiched between silicon treated liners, with OZO (OZO kagakugiken Co., Ltd.). It was then stored at 25° C., 40° C., 50° C., and 60° C. to perform an acceleration test to conduct a stability test of the content over time (n=3). The content was returned to room temperature, and then extracted with 4 mL of an extraction liquid, followed by measurement by HPLC.
# Using this solution, a drug solution unit was produced, and preservation qualities resulting from various drying times were examined under a nitrogen stream.
# [4] = PTH storage method: acceleration stability test of the content, form of package and stabilizing agent (Example 6); type: physicochemical
# Method: PTH was prepared at 40 mg/mL with water for injection, which was then dispensed to serve as a drug solution. It was further diluted to 20 mg/mL with water for injection before experiment, 20 μL of which was added dropwise to a microneedle base (400 μg/patch), which served as a medicinal unit.
# as §2
# Extraction liquid: a 0.01% benzalkonium chloride solution or 2% TMTDAB, 1% sodium chloride, and 10 mM acetic acid buffer
# Detector: an ultraviolet absorptiometer (measurement wavelength: 220 nm)
# Column temperature: 25° C.
# [5] = PTH/pullulan coating liquid: solubility evaluation and amount of PTH coated on microneedles (Example 9); type: physicochemical; conditions: 30% or 40% PTH solution with small amount of surfactant (Tween 20)
# Method: In order to optimize a ratio between PTH (1-34) (the product of Sichuan Unibiochem Co., Ltd.) and a coating carrier, which is a water-soluble high molecular weight polymer, a study was conducted using PTH and a coating carrier (pullulan). […] The concentration of pullulan was adjusted based on the viscosity of the solution at the time of dissolving, and the range of the concentration of pullulan was set to 0 to 30% (w/w). It is to be noted that, as the pullulan, one recited in Japanese Pharmacopeia (the product of Hayashibara Biochemical Labs., Inc.) was used. Further, in order to increase the adhesiveness to the needles, a study was also conducted for the case in which a surfactant (Tween20, 0.1%) was added as shown in Table 7.
# Evaluation of solubility of PTH was performed after adjusting each solution, and a coating liquid capable of adjusting a uniform solution was subjected to an operation for coating of microneedles made of a polylactic acid. Following the aforementioned method as a coating method, coating was performed only on the tip part of the needles with the use of a metal mask (only the needle part was coated using a metal mask having a diameter of the aperture: 220 μm and thickness: 100 μm).
# [6] = Study on the addition amount of sucrose to PTH, stability of content (Example 7); type: physicochemical
# Method: as §2
# Other than this, the study was conducted in the same manner as the aforementioned Examples.
substance,measurement,setting,value
human parathyroid hormone hPTH (1-34),skin penetration property,[1],efficient drug delivery is made possible
same,"initial rise in the blood concentration, reaching maximum blood concentration",[2]; microneedle device vs subcutaneous administration,more rapidly reached than subcutaneous administration
same,amount of absorption (serum hPTH),"[2]; microneedle length 300 and 500 μm, attached six hours",increases in the amount of absorption dependent on the length of the microneedles
same,residual ratio (%) relative to the initial value,"[3]; drying time 15 minutes, 1W",85.35 ± 0.64%
same,residual ratio (%) relative to the initial value,"[3]; drying time 15 minutes, 4W",75.43 ± 1.69%
same,residual ratio (%) relative to the initial value,"[3]; drying time 30 minutes, 1W",85.53 ± 0.49%
same,residual ratio (%) relative to the initial value,"[3]; drying time 30 minutes, 4W",73.10 ± 0.36%
same,residual ratio (%) relative to the initial value,"[3]; drying time 1 hour, 1W",84.62 ± 0.72%
same,residual ratio (%) relative to the initial value,"[3]; drying time 1 hour, 4W",75.56 ± 1.69%
same,residual ratio (%) relative to the initial value,"[3]; drying time 2 hours, 1W",86.01 ± 1.07%
same,residual ratio (%) relative to the initial value,"[3]; drying time 2 hours, 4W",73.93 ± 1.41%
same,residual ratio (%) relative to the initial value,"[3]; drying time 16 hours, 1W",87.08 ± 0.72%
same,residual ratio (%) relative to the initial value,"[3]; drying time 16 hours, 4W",72.71 ± 2.01%
same,residual ratio (%) relative to the initial value,"[4]; 40° C., 1W",100.22 ± 0.53%
same,residual ratio (%) relative to the initial value,"[4]; 40° C., 2W",97.64 ± 0.72%
same,residual ratio (%) relative to the initial value,"[4]; 40° C., 4W",97.02 ± 0.65%
same,residual ratio (%) relative to the initial value,"[4]; 50° C., 1W",94.65 ± 1.55%
same,residual ratio (%) relative to the initial value,"[4]; 50° C., 2W",94.10 ± 2.25%
same,residual ratio (%) relative to the initial value,"[4]; 50° C., 4W",84.26 ± 1.19%
same,residual ratio (%) relative to the initial value,"[4]; 60° C., 1W",89.50 ± 1.11%
same,residual ratio (%) relative to the initial value,"[4]; 60° C., 2W",88.22 ± 0.82%
same,residual ratio (%) relative to the initial value,"[4]; 60° C., 4W",71.80 ± 1.94%
same,amount of PTH attached by single coating operation,[5],≥ 20 µg
same,residual ratio (%) relative to the initial value,"[6]; 40° C., 1W",83.26 ± 0.57%
same,residual ratio (%) relative to the initial value,"[6]; 40° C., 4W",92.82 ± 0.74%
same,residual ratio (%) relative to the initial value,"[6]; 50° C., 4W",80.83 ± 4.57%
same,residual ratio (%) relative to the initial value,"[6]; 60° C., 4W",76.55 ± 3.95%

# From patent publication US20110288485A1, “MICRONEEDLE DEVICE” (HISAMITSU PHARMACEUTICAL CO., INC., priority 2008, published 2011)
